Ends that are not written are not given here. Peptide text beside a SMILES is read from it. * marks the point of attachment. Biotin = O=C1N[C@H]2[C@H](CS[C@H]2CCCCC(=O)*)N1
Experiments:
Experiment in all cases: G' assay (10 uM PL peptide), results of TABLE 7 and TABLE 12
Format in all cases: binding
[1] = target: T1, PDZ protein (GST-PDZ fusion) (Homo sapiens, UniProt Q07157)
T1 construct: made in house; host or cells: E. coli (DH5alpha, BL21 or JM109)
Outline: (§1)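 Same steps as the G-zero format, apart from a peptide concentration of 10 uM in place of 20 uM in step 2. Amino-terminally biotinylated PL peptides bind GST-PDZ fusions, and retained peptide is quantified by 450 nm absorbance.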

[2] = target: T2, PDZ protein (GST-PDZ fusion) (Homo sapiens, UniProt Q96RT1); conditions: PDZ Erbin, PDZ Domain 1
T2 construct: made in house; host or cells: E. coli (DH5alpha, BL21 or JM109)
T2 sequence (Q96RT1 whole entry, the tested form may be a part): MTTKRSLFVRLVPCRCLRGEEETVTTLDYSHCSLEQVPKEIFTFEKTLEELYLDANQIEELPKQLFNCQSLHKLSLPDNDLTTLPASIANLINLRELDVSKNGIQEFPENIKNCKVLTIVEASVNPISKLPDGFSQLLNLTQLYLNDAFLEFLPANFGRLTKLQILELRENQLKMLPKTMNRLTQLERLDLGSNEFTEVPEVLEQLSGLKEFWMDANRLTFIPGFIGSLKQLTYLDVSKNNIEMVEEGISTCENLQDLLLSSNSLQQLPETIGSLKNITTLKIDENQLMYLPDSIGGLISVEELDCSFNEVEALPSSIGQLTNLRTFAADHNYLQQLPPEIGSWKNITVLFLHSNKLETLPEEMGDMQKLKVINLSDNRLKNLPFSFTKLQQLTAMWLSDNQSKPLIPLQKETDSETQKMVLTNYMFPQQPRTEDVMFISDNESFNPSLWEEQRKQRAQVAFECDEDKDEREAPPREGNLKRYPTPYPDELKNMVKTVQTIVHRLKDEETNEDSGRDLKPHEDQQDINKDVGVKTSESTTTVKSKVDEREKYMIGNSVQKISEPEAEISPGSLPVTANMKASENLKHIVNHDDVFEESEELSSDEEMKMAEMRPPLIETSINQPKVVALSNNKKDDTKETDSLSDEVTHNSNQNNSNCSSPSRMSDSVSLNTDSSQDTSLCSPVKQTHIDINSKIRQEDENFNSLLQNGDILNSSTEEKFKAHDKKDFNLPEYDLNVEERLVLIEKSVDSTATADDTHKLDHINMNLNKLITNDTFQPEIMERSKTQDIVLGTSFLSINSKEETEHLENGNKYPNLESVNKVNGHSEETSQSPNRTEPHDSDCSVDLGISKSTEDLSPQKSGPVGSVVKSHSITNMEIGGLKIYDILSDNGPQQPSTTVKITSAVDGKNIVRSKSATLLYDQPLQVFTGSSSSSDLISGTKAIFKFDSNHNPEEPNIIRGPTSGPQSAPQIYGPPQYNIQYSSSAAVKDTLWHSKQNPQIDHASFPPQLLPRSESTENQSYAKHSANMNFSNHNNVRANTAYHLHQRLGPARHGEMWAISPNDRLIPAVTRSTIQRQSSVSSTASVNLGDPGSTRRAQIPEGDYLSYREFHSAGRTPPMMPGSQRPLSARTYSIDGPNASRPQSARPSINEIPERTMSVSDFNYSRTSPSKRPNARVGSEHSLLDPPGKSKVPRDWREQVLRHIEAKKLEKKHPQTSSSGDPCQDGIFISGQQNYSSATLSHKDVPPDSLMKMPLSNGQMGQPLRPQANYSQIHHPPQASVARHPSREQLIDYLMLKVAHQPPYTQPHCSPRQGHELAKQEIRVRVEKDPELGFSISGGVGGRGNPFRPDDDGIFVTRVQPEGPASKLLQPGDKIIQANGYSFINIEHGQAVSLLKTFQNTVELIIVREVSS
Outline: as §1

[3] = target: T3, PDZ protein (GST-PDZ fusion) (Homo sapiens, UniProt P29475); conditions: PDZ NOS1, PDZ Domain 1
T3 construct: made in house; host or cells: E. coli (DH5alpha, BL21 or JM109)
T3 sequence (P29475 whole entry, the tested form may be a part): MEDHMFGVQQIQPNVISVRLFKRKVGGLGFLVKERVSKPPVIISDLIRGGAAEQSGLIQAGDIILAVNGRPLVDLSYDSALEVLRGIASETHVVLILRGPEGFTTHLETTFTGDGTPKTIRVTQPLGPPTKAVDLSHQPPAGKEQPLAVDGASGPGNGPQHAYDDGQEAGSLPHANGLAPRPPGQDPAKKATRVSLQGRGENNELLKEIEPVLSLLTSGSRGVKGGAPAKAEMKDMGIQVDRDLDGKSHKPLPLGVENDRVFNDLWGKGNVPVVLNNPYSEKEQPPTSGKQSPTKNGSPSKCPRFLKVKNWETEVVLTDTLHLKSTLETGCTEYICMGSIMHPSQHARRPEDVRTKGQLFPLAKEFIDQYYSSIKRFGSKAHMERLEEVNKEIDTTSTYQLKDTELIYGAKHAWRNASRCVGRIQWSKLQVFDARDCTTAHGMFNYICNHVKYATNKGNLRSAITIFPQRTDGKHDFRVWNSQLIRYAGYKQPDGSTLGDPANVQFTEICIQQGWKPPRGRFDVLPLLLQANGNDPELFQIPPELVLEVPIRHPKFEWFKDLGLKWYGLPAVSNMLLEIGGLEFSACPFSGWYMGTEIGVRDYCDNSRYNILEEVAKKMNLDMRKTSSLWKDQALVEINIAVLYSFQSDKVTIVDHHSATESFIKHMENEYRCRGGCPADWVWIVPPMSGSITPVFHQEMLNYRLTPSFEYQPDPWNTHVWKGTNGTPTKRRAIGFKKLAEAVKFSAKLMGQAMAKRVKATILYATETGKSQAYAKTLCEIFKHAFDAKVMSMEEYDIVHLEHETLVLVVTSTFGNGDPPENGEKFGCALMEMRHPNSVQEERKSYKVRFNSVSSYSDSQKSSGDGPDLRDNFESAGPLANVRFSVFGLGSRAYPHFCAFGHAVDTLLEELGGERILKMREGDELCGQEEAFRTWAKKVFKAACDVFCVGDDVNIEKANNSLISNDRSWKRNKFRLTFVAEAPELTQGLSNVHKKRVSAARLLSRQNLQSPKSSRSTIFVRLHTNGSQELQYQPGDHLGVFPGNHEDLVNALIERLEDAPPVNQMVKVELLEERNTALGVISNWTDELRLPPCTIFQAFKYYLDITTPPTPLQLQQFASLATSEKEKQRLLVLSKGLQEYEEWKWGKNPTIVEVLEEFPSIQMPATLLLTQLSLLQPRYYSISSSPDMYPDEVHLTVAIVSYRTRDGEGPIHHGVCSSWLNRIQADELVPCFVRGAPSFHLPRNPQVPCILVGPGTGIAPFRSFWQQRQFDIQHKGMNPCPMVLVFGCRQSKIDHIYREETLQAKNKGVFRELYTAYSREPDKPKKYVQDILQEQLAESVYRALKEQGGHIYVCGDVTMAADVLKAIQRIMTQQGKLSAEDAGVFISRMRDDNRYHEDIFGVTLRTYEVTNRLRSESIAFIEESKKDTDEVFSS
Outline: as §1

[4] = target: T4, PDZ protein (GST-PDZ fusion) (Homo sapiens, UniProt O14641); conditions: PDZ DVL2, PDZ Domain 1
T4 construct: made in house; host or cells: E. coli (DH5alpha, BL21 or JM109)
T4 sequence (O14641 1-736): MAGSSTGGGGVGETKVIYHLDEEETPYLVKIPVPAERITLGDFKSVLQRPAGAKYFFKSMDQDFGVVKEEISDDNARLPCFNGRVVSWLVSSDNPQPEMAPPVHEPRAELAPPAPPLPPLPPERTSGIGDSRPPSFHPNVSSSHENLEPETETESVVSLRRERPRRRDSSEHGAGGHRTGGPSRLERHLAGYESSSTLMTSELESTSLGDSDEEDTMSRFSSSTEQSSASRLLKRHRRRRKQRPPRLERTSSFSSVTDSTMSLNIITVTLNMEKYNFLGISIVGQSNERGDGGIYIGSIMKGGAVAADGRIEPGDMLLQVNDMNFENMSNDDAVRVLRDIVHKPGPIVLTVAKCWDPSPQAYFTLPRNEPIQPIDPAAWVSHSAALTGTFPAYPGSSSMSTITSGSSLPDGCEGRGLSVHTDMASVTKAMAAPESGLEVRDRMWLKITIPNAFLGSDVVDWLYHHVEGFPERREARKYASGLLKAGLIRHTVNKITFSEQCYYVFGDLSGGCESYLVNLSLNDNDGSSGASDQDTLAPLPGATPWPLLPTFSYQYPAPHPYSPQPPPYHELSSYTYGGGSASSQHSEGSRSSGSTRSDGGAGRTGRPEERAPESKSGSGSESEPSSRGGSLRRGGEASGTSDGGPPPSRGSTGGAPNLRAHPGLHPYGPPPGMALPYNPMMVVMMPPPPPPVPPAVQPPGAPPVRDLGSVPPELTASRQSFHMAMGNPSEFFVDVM
Outline: as §1

T1 sequence (Q07157 whole entry, the tested form may be a part): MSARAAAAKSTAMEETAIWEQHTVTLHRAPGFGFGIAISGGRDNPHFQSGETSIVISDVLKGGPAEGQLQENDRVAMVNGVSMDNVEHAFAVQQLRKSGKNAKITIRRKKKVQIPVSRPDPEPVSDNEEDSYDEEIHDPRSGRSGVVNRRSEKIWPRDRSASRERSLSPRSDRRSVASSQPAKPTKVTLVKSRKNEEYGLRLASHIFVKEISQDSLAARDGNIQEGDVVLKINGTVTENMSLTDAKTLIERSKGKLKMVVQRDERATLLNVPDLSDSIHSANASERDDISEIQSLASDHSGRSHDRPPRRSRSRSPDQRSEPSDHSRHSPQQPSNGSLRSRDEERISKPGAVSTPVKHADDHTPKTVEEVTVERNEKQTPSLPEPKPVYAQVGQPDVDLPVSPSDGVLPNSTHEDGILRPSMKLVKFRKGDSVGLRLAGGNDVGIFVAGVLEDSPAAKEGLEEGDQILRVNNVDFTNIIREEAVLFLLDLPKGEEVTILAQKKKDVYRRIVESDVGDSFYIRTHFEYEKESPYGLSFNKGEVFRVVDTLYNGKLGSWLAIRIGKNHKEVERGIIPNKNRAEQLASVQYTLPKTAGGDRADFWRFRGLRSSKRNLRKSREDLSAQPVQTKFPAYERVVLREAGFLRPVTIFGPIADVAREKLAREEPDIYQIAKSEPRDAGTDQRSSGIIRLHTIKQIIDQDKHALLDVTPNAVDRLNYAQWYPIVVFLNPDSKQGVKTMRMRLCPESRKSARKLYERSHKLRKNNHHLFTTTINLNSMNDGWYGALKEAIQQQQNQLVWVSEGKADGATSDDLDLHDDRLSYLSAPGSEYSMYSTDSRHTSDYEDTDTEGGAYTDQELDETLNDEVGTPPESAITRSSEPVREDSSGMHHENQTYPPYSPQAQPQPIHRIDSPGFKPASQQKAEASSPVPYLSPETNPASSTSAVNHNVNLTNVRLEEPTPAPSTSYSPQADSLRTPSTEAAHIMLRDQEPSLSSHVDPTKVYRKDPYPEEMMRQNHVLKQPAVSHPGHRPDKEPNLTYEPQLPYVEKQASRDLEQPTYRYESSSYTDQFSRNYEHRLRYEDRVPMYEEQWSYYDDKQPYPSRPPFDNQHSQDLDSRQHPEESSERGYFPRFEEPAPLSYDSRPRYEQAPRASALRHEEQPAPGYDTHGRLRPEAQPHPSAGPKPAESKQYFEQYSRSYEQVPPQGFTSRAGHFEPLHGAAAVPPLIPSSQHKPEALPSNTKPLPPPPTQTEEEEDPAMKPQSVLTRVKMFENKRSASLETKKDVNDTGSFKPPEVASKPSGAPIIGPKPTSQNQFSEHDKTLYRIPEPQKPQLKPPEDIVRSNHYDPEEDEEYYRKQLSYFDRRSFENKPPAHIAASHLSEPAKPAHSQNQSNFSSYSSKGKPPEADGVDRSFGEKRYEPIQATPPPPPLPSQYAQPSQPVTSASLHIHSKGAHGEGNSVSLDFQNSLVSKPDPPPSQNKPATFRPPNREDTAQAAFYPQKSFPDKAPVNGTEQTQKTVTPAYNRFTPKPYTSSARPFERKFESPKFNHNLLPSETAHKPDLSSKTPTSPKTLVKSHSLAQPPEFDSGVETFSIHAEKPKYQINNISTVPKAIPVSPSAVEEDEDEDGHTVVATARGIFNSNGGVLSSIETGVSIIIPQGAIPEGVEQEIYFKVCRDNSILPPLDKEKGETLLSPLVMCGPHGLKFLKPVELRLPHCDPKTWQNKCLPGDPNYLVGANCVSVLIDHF

Classification ([1]; PDZ ZO-1, PDZ Domain 2)	Classification [4]	Compound	Classification ([1]; PDZ ZO-1, PDZ Domain 1)	Classification [2]	Classification [3]
–	–	CSCC[C@H](NC(=O)[C@H](C)NC(=O)[C@H](CCCNC(=N)N)NC(=O)CNC(=O)[C@@H](NC(=O)[C@H](Cc1c[nH]c2ccccc12)NC(=O)[C@H](CCCNC(=N)N)NC(=O)CNC(=O)CCCC[C@@H]1SC[C@@H]2NC(=O)N[C@@H]21)[C@@H](C)O)C(=O)N[C@@H](CO)C(=O)N[C@@H](C)C(=O)N[C@@H](Cc1c[nH]c2ccccc12)C(=O)N[C@@H](CCCCN)C(=O)N1CCC[C@H]1C(=O)N[C@H](C(=O)N[C@@H](CCCNC(=N)N)C(=O)N[C@@H](CCCNC(=N)N)C(=O)N[C@@H](CCC(=O)O)C(=O)N[C@H](C(=O)N[C@@H](CCC(=O)O)C(=O)N[C@H](C(=O)O)C(C)C)[C@@H](C)O)[C@@H](C)O [HPV E6 #35 (modified)] (Biotin-GRWTGRAMSAWKPTRRETEV-OH; C-terminus assumed)	1 (A450 nm 0-1)	2 (A450 nm 1-2)	1 (A450 nm 0-1)
4 (A450 nm 3-4)	5 (A450 nm of 4 more than 2× repeated)	ELLQFCRTPNPALKNGQYWV (Biotin-ELLQFCRTPNPALKNGQYWV)	5 (A450 nm of 4 more than 2× repeated)	3 (A450 nm 2-3)	2 (A450 nm 1-2)
